B1: YMB2 IgG (antibody, V domains shown)
VH: EVQLQQSGAELVKPGASVKLSCTASGFNIKDTYMHWVKQRPEQGLEWIGRIDPENGNTKYDPKFQGKATITADTSSNTAYLQLSSLTSEDTAVYYCARFLITTGYFDYWGQGTTLTVSS
VL: DIVLTQSHKFMSTSVGDRVSITCKASQDVGTAVAWYQQKPGQSPKLLIYWASTRHTGVPDRFTGSGSGTDFTLTISNVQSEDLADYFCQQYSSYPLTFGAGTKLEIKR
B2: YMF10 IgG (antibody, V domains shown)
VH: EVQLQQSGAELVRSGASVKLSCTASGFNIKDYYMHWVKQRPEQGLEWIGWIDPENGDTEYAPKFQGKATMSADTSSNTAYLQLSSLTSEDTAVYYCNAGTPFEGLRRADYWGQGTTLTVSS
VL: DIVMTQSHKFMSTSVGDRVSITCKASQDVGTAVAWYQQKPGQSPKLLIYWASTRHTGVPDRFTGSGSGTDFTLTISNVQSEDLADYFCQQYSSYPLTFGAGTKLELNR
B3: YMD1 IgG (antibody, V domains shown)
VH: EVQLVESGAELVRSGASVKLSCTASGFNIKDYYMHWVKQRPEQGLEWIGWIDPENGDTEYAPKFQGKATMTADTSSNTAYLQLSSLTSEDTAVYYCNAGTPFEGLRKADYWGQGTTLTVSS
VL: DIVMTQSHKLMSTSVGDRVSITCKASQDVGTAVAWYQQKPGQSPRLLIYWASTRHTGVPDRFTGSGSGTDFTLTITNVQSEDLADYFCQQYSSYPYTFGGGTKLEIKR

molecular target: PA-63 (Bacillus anthracis, UniProt P13423 197-764)
Sequence (P13423 197-764 limits assumed): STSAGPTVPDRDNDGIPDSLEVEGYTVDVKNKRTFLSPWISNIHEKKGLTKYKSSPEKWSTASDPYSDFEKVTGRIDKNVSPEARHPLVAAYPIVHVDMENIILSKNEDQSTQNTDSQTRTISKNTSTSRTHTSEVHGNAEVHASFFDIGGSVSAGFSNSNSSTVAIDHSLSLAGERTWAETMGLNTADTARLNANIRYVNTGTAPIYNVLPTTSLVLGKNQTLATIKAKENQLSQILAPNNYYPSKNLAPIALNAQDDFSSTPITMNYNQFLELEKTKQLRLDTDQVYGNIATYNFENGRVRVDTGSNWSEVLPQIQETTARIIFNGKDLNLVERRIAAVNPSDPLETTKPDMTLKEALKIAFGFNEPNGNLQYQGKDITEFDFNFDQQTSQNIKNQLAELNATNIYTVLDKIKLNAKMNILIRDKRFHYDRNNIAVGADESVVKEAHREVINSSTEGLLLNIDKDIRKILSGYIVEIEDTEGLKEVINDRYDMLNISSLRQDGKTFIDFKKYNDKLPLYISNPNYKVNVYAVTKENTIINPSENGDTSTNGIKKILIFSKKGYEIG

**Q.** For B1, which Kd is on record?
**A.** 437 nM

**Q.** What about the koff of the same binder?
**A.** 0.014 s⁻¹

**Q.** What about the kon of the same binder?
**A.** 32000 M⁻¹ s⁻¹

**Q.** How did the Kd turn out when B2 was run?
**A.** 31 nM

**Q.** And the koff?
**A.** 0.015 s⁻¹

**Q.** What about the kon of the same binder?
**A.** 490000 M⁻¹ s⁻¹

**Q.** Which Kd does the source give for B3 here?
**A.** 55 nM

**Q.** And the koff?
**A.** 0.019 s⁻¹

**Q.** What about the kon of the same binder?
**A.** 350000 M⁻¹ s⁻¹
